According to US20070077597A1 (published 2007):

T1: human thrombin receptor (PAR1) (human, UniProt P25116 42-425)
T1 sequence (looked up): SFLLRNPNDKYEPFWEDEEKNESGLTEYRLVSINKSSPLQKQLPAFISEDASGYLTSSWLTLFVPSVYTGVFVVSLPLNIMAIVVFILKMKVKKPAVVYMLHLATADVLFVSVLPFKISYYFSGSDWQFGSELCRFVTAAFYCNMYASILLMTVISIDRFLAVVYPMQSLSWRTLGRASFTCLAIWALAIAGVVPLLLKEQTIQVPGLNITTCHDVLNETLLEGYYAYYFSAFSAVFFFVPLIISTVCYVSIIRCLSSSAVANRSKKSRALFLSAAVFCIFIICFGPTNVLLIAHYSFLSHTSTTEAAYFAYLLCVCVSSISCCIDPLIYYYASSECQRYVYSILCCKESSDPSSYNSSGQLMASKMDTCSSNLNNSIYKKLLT


molecular target: T1, human thrombin receptor (PAR1); experiment: cell-based or functional assay

thrombin-mediated HA-MAPK activity in HMEC | Molecule
59 % decrease | MGIKNNLKDCGLF [Gαi C-terminal minigene peptide (pcDNA-Gαi)]
57 % decrease | MGLQLNLKEYNAV [Gαq C-terminal minigene peptide (pcDNA-Gαq)]
77 % decrease | MGLHDNLKQLMLQ [Gα13 C-terminal minigene peptide (pcDNA-Gα13)]
50 % decrease | MGLQENLKDIMLQ [Gα12 C-terminal minigene peptide (pcDNA-Gα12)]

molecular target: T2, light-activated bovine rhodopsin (metarhodopsin II) in rod outer segment membranes (bovine, UniProt P02699 1-348, retinylidene chromophore on Lys-296 (all-trans after light)); experiment: first screening of the Gαt library on light-activated rhodopsin
T2 construct: whole, on cells; also called MII
T2 sequence (P02699 whole entry): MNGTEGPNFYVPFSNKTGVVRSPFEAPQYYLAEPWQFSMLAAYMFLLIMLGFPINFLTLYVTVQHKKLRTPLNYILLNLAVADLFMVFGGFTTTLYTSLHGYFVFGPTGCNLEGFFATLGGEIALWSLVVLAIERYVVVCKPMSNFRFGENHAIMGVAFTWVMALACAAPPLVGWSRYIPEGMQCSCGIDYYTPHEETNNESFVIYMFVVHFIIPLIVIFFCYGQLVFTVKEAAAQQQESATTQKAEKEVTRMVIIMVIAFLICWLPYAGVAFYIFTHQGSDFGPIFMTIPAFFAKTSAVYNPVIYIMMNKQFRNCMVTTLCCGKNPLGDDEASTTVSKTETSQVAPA

fold higher binding than the native sequence | Molecule
1000 fold | LacI fusion clone 8 (Gt library) (other, E. coli, not shown: small tags and cut ends, also called Peptide 8; HAP) MKPVTLYDVAEYAGVSYQTVSRVVNQASHVSAKTREKVEAAMAELNYIPNRVAQQLAGKQSLLIGVATSSLALHAPSQIVAAIKSRADQLGASVVVSMVERSGVEACKAAVHNLLAQRVSGLIINYPLDDQDAIAVEAACTNVPALFLDVSDQTPINSIIFSHEDGTRLGVEHLVALGHQQIALLAGPLSSVSARLRLAGWHKYLTRNQIQPIAEREGDWSAMSGFQQTMQMLNEGIVPTAMLVANDQMALGAMRAITESGLRVGADISVVGYDDTEDSSCYIPPLTTIKQDFRLLGQTSVDRLLQLSQGQAVKGNQLLPVSLVKRKTTLAPNTQTASPRALADSLMQLARQVSRLESGQLLENLRDCGMF

molecular target: T2, light-activated bovine rhodopsin …; experiment: ELISA of clone lysate on rhodopsin
Method: The methods of Example 7 repeated using rhodopsin screening with a Gt library. To identify the rank order of binding, the lysates were analyzed using ELISA methods in which the secondary antibody was conjugated to HRP. Following addition of the substrate, the microplate was read using a spectrophotometer. The binding is the OD₄₅₀ for wells with receptor—OD₄₅₀ for wells in which no receptor (control wells with empty lipid vesicles).

Molecule | ELISA (OD450 with receptor minus OD450 without receptor)
LacI fusion clone L3 (Gt library) (other, E. coli, not shown: small tags and cut ends) MKPVTLYDVAEYAGVSYQTVSRVVNQASHVSAKTREKVEAAMAELNYIPNRVAQQLAGKQSLLIGVATSSLALHAPSQIVAAIKSRADQLGASVVVSMVERSGVEACKAAVHNLLAQRVSGLIINYPLDDQDAIAVEAACTNVPALFLDVSDQTPINSIIFSHEDGTRLGVEHLVALGHQQIALLAGPLSSVSARLRLAGWHKYLTRNQIQPIAEREGDWSAMSGFQQTMQMLNEGIVPTAMLVANDQMALGAMRAITESGLRVGADISVVGYDDTEDSSCYIPPLTTIKQDFRLLGQTSVDRLLQLSQGQAVKGNQLLPVSLVKRKTTLAPNTQTASPRALADSLMQLARQVSRLESGQILENLKDCGLF | 0.839 OD450
LacI fusion clone 13 (Gt library), IRGSLKDCGLF (other, E. coli, not shown: small tags and cut ends, also called L20) MKPVTLYDVAEYAGVSYQTVSRVVNQASHVSAKTREKVEAAMAELNYIPNRVAQQLAGKQSLLIGVATSSLALHAPSQIVAAIKSRADQLGASVVVSMVERSGVEACKAAVHNLLAQRVSGLIINYPLDDQDAIAVEAACTNVPALFLDVSDQTPINSIIFSHEDGTRLGVEHLVALGHQQIALLAGPLSSVSARLRLAGWHKYLTRNQIQPIAEREGDWSAMSGFQQTMQMLNEGIVPTAMLVANDQMALGAMRAITESGLRVGADISVVGYDDTEDSSCYIPPLTTIKQDFRLLGQTSVDRLLQLSQGQAVKGNQLLPVSLVKRKTTLAPNTQTASPRALADSLMQLARQVSRLESGQIRGSLKDCGLF | 0.423 OD450
LacI fusion clone L6 (Gt library) (other, E. coli, not shown: small tags and cut ends) MKPVTLYDVAEYAGVSYQTVSRVVNQASHVSAKTREKVEAAMAELNYIPNRVAQQLAGKQSLLIGVATSSLALHAPSQIVAAIKSRADQLGASVVVSMVERSGVEACKAAVHNLLAQRVSGLIINYPLDDQDAIAVEAACTNVPALFLDVSDQTPINSIIFSHEDGTRLGVEHLVALGHQQIALLAGPLSSVSARLRLAGWHKYLTRNQIQPIAEREGDWSAMSGFQQTMQMLNEGIVPTAMLVANDQMALGAMRAITESGLRVGADISVVGYDDTEDSSCYIPPLTTIKQDFRLLGQTSVDRLLQLSQGQAVKGNQLLPVSLVKRKTTLAPNTQTASPRALADSLMQLARQVSRLESGQICENLKDCGLF | 0.342 OD450
LacI fusion clone L10 (Gt library), IHDRLKDCGLF (other, E. coli, not shown: small tags and cut ends, this is the first) MKPVTLYDVAEYAGVSYQTVSRVVNQASHVSAKTREKVEAAMAELNYIPNRVAQQLAGKQSLLIGVATSSLALHAPSQIVAAIKSRADQLGASVVVSMVERSGVEACKAAVHNLLAQRVSGLIINYPLDDQDAIAVEAACTNVPALFLDVSDQTPINSIIFSHEDGTRLGVEHLVALGHQQIALLAGPLSSVSARLRLAGWHKYLTRNQIQPIAEREGDWSAMSGFQQTMQMLNEGIVPTAMLVANDQMALGAMRAITESGLRVGADISVVGYDDTEDSSCYIPPLTTIKQDFRLLGQTSVDRLLQLSQGQAVKGNQLLPVSLVKRKTTLAPNTQTASPRALADSLMQLARQVSRLESGQIHDRLKDCGLF | 0.506 OD450

More lines, now with the values ahead:

ELISA (OD450 with receptor minus OD450 without receptor) | Molecule
0.621 OD450 | LacI fusion clone L15 (Gt library) (other, E. coli, not shown: small tags and cut ends) MKPVTLYDVAEYAGVSYQTVSRVVNQASHVSAKTREKVEAAMAELNYIPNRVAQQLAGKQSLLIGVATSSLALHAPSQIVAAIKSRADQLGASVVVSMVERSGVEACKAAVHNLLAQRVSGLIINYPLDDQDAIAVEAACTNVPALFLDVSDQTPINSIIFSHEDGTRLGVEHLVALGHQQIALLAGPLSSVSARLRLAGWHKYLTRNQIQPIAEREGDWSAMSGFQQTMQMLNEGIVPTAMLVANDQMALGAMRAITESGLRVGADISVVGYDDTEDSSCYIPPLTTIKQDFRLLGQTSVDRLLQLSQGQAVKGNQLLPVSLVKRKTTLAPNTQTASPRALADSLMQLARQVSRLESGQVRDILKDCGLF
0.603 OD450 | LacI fusion clone L34 (Gt library) (other, E. coli, not shown: small tags and cut ends) MKPVTLYDVAEYAGVSYQTVSRVVNQASHVSAKTREKVEAAMAELNYIPNRVAQQLAGKQSLLIGVATSSLALHAPSQIVAAIKSRADQLGASVVVSMVERSGVEACKAAVHNLLAQRVSGLIINYPLDDQDAIAVEAACTNVPALFLDVSDQTPINSIIFSHEDGTRLGVEHLVALGHQQIALLAGPLSSVSARLRLAGWHKYLTRNQIQPIAEREGDWSAMSGFQQTMQMLNEGIVPTAMLVANDQMALGAMRAITESGLRVGADISVVGYDDTEDSSCYIPPLTTIKQDFRLLGQTSVDRLLQLSQGQAVKGNQLLPVSLVKRKTTLAPNTQTASPRALADSLMQLARQVSRLESGQILESLNECGLF
1.01 OD450 | LacI fusion clone L33 (Gt library) (other, E. coli, not shown: small tags and cut ends) MKPVTLYDVAEYAGVSYQTVSRVVNQASHVSAKTREKVEAAMAELNYIPNRVAQQLAGKQSLLIGVATSSLALHAPSQIVAAIKSRADQLGASVVVSMVERSGVEACKAAVHNLLAQRVSGLIINYPLDDQDAIAVEAACTNVPALFLDVSDQTPINSIIFSHEDGTRLGVEHLVALGHQQIALLAGPLSSVSARLRLAGWHKYLTRNQIQPIAEREGDWSAMSGFQQTMQMLNEGIVPTAMLVANDQMALGAMRAITESGLRVGADISVVGYDDTEDSSCYIPPLTTIKQDFRLLGQTSVDRLLQLSQGQAVKGNQLLPVSLVKRKTTLAPNTQTASPRALADSLMQLARQVSRLESGQIVEILEDCGLF
0.823 OD450 | LacI fusion clone L38 (Gt library) (other, E. coli, not shown: small tags and cut ends) MKPVTLYDVAEYAGVSYQTVSRVVNQASHVSAKTREKVEAAMAELNYIPNRVAQQLAGKQSLLIGVATSSLALHAPSQIVAAIKSRADQLGASVVVSMVERSGVEACKAAVHNLLAQRVSGLIINYPLDDQDAIAVEAACTNVPALFLDVSDQTPINSIIFSHEDGTRLGVEHLVALGHQQIALLAGPLSSVSARLRLAGWHKYLTRNQIQPIAEREGDWSAMSGFQQTMQMLNEGIVPTAMLVANDQMALGAMRAITESGLRVGADISVVGYDDTEDSSCYIPPLTTIKQDFRLLGQTSVDRLLQLSQGQAVKGNQLLPVSLVKRKTTLAPNTQTASPRALADSLMQLARQVSRLESGQLLDILKDCGLF
0.833 OD450 | LacI fusion clone L14 (Gt library) (other, E. coli, not shown: small tags and cut ends) MKPVTLYDVAEYAGVSYQTVSRVVNQASHVSAKTREKVEAAMAELNYIPNRVAQQLAGKQSLLIGVATSSLALHAPSQIVAAIKSRADQLGASVVVSMVERSGVEACKAAVHNLLAQRVSGLIINYPLDDQDAIAVEAACTNVPALFLDVSDQTPINSIIFSHEDGTRLGVEHLVALGHQQIALLAGPLSSVSARLRLAGWHKYLTRNQIQPIAEREGDWSAMSGFQQTMQMLNEGIVPTAMLVANDQMALGAMRAITESGLRVGADISVVGYDDTEDSSCYIPPLTTIKQDFRLLGQTSVDRLLQLSQGQAVKGNQLLPVSLVKRKTTLAPNTQTASPRALADSLMQLARQVSRLESGQLRENLKDCGLL

molecular target: T1, human thrombin receptor (PAR1); experiment: ELISA dose-response, purified MBP-Gαq on purified reconstituted PAR1 with thrombin receptor activating peptide

IC50 | Molecule
0.214 µM | purified maltose binding protein-Gαq (MBP-Gαq), native Gq C-terminal peptide fusion
